# Assay: label from the status in PepcDB records
row,Sequence,protein production
1,MSRVKNVVELLETKGVDALYLTKKTNVNYISGFPDEEAYAVICKDGNFLVTDSRYMELAEKVCKDFEIINWHNFDRSVAKAVKSVCDKVGIKKLGFERTNIVFDKYEELKNLIEKDNGELIPTENIVETLRYVKDKDEIKNTRKACEIADKALEELIPHIKAGVSEIELATKLEYFMKMNGAQNIGFETILISGAKTSLLHGKPSDKIIEKGDFVLIDYGAMYNGYISDTTRTFIVGGASEKQLEIYNLVKEAQNVGVENMKAGVHATIPDAEIRKVVKKYEDYYYQGIGHGVGRDVHEEPFIGNYGDKIIEEGCIITMEPGIYFPGWGGVRIEDTVLITKNGPERLTKFPKDLMILDK,failed
2,MSSARFDSSDRSAWYMGPVSRQEAQTRLQGQRHGMFLVRDSSTCPGDYVLSVSENSRVSHYIINSLPNRRFKIGDQEFDHLPALLEFYKIHYLDTTTLIEPAPRYPSPPMGSVSAPNLPTAEDNLEYVRTLYDFPGNDAEDLPFKKGEILVIIEKPEEQWWSARNKDGRVGMIPVPYVEKLVRSSPHGKHGNRNSNSYGIPEPAHAYAQPQTTTPLPAVSGSPGAAITPLPSTQNGPVFAKAIQKRVPCAYDKTALALEVGDIVKVTRMNINGQWEGEVNGRKGLFPFTHVKIFDPQNPDENE,not failed
3,MSSASGLRRGHPAGGEENMTETDAFYKREMFDPAEKYKMDHRRRGIALIFNHERFFWHLTLPERRGTCADRDNLTRRFSDLGFEVKCFNDLKAEELLLKIHEVSTVSHADADCFVCVFLSHGEGNHIYAYDAKIEIQTLTGLFKGDKCHSLVGKPKIFIIQACRGNQHDVPVIPLDVVDNQTEKLDTNITEVDAASVYTLPAGADFLMCYSVAEGYYSHRETVNGSWYIQDLCEMLGKYGSSLEFTELLTLVNRKVSQRRVDFCKDPSAIGKKQVPCFASMLTKKLHFFPKSNLEHHHHHH,failed
4,MSSDESSDGLEELQSLKALYGQQEQEKPAKIKRERYIPKASQAKELNYVEVPMEKVLFGDRQRLLTNLAKSVGQKLPNDDEDEQEENPGQAKPGDKRKAAWSDSDDEDLQVGDVKKATKHTGPLNHLRKDKSYKEYLTARFQRTLNQPKWAEKKVKNEDDEDVSSDEELLRTVGFIDRKARNSDLPQKTLNFKRVKDLNRATYAEGNATSIQFHPTSTAALVAGMNGLATIYAVDGQKNERLHNMRFKKFPLACSRIAPCGTRAFFGSVKPFYYSYDLLEAKESKLKLPGAMEFMHRFEVSPCGKFIVTAGKFGAIHLLTAKTNELLHSFKQEGKVKGFTWSSDSKRILVCGSTSNVSVLNLRQNLIEHIFMDDGCIHGESIQLSPNQRLLATGSQEGVVNIYDYESIFASKAPQPEKRFMNLRTAITDLQFNHSSELLAMCSSEAPNAFKLAHFPSATVYSNFPAQNEKVGFVTSMAFSPHSSFLAFATKGKQVPLFRLKYFKGY,failed
5,MSSECDGGSKAVMNGLAPGSNGQDKDMDPTKICTGKGAVTLRASSSYRETPSSSPASPQETRQHESKPGLEPEPSSADEWRLSSSADANGNAQPSSLAAKGYRSVHPNLPSDKSQDSSPLLNEVSSSLIGTDSQAFPSVSKPSSAYPSTTIVNPTIVLLQHNREQQKRLSSLSDPVSERRVGEQDSAPTQEKPTSPGKAIEKRAKDDSRRVVKSTQDLSDVSMDEVGIPLRNTERSKDWYKTMFKQIHKLNRDDDSDLYSPRYSFSEDTKSPLSVPRSKSEMSYIDGEKVVKRSATLPLPARSSSLKSSSERNDWEPPDKKVDTRKYRAEPKSIYEYQPGKSSVLTNEKMSRDISPEEIDLKNEPWYKFFSELEFGKPTNLDKDLSLCQTELEADLEKMETLNKAPSANVPQSSAISPTPEISSETPGYIYSSNFHAVKRESDGAPGDLTSLENERQIYKSVLEGGDIPLQGLSGLKRPSSSASTKVHSRTFNTSNALGPVCKHKKPLSAAKACISEILPSKFKPRLSAPSALLQEQKSILLPSEKAQSCENLCVSGSLNDSKRGLPLQVGGSIENLLMRSRRDYDSKSSSTMSLQEYSTSGRRPCPLSRKAGMQFTMLYRDMHQINRSGLFLGSISSSSSVRDLASHFEKSSLALSRGELGPSQEGSEHIPKHTVSSRITAFEQLIQRSRSMPSLDLSGRLSKSPTPVLSRGSLTSARSAESLLESTKLHPKEMDGMNSSGVYASPTCSNMAHHALSFRGLVPSEPLSTCSDDVDRCSNISTDSREGSGGSVHGDFPKHRLNKCKGTCPASYTRFTTIRKHEQQQTSRQPEWRLDARGDKSTLLRNIYLMSPLPFRLKKPLHHHPRQPSPGDSSGLLVGQKPDLPSQPHQDQPPSGGKPVVPTRLSSRHTMARLSRSSEPSQERPTALEDYPRAINNGNSVPYSDHSLDRNNNPQSELAPSRGDSESPRHFIPADYLESTEEFIRRRHDDKEMRPARAKFDFKAQTLKELPLQKGDIVYIYKQIDQNWYEGEHHGRVGIFPRTYIELLPPAEKAQPKKLTPVQVLEYGEAIAKFNFNGDTQVEMSFRKGERITLLRQVDENWYEGRIPGTSRQGIFPITYVDVIKRPLVKNPVDYMDLPFSSSPSRSATASPQQPQAQQRRVTPDRSQTSQDLFSYQALYSYIPQNDDELELRDGDIVDVMEKCDDGWFVGTSRRTKQFGTFPGNYVKPLYL,not failed
6,MSSESRNLNRFFLYFAGILIFFIYITPCLATYNFEGTPEQDELIEITSGTVKGGLYVDGGEGLKKTPYVQEFNVPGDVVTWARVYVGVWGGTEEKTGTLDLTINGEEFESLDLEGKNDKGDDEDQNPAIYCTGHGVYWIAYDVGTNISTGPVTVEAQTEGDIDGRVYGIILAAVYEDKEGQSTKYWVEEGNINLHGKGWSETLASTHDEGYADFSGKVDTDKYNTANLAVVYLCGTPGLDDSLYFNEEQLSDGENSNDIANSKSYFDFKFFDVLDLLEEDDNELKFQRDEEDYVHPVLAALTLGTGEEGTSDLIVSGLTVPLLYAGKDNTIKASIKNIGKDSAYGFQAALYADGEIVSTAPVSSLSSGKSKTIEFNWKPAWDGEQALKVYVDYTNKKKETCEVNNWNSPFLAKVVDLTPPELEIDYPEDGARVDAGYLTVSGTIEDTNRNLTVDVNGQNALISGESWSASVPVVSGPNTIVVSAVDGENNTGRELIVVEGKESSTDSKESSQSDLTVSSKAENETEPVNQSILGSQTREYEKQAVLSPISEGIGFISAILFLRYRNRGKRL,failed
7,MSSFVLDKEAFVRRVKRLYTEWRAPSIGHDDALRNLDCIMSIVGVEEDVMYSKSMALQLWLLGYELTDTISVFCSDAVYFLTSKKKIEFLKQTQNITEEGFPEINLLVRDRTDKDQGNFEKLIKALQNSKKGKRLGVFAKDAYPGEFSEAWKKSLTASKFEHVDISTIIAYLMCPKDESEINNIRKASLVSMDIFNKYLKDEIMDIIDSDRKVKHNKLSDGCEAAIGEKKYTSGLDPRLLDMAYPPIIQSGGAYSLKFSAVADKNPLHFGVIVCSLGARYKSYCSNISRTFLVNPTEAMQENYTFLVSV,failed
8,MSSIKIECVLPENCRCGESPVWEEVSNSLLFVDIPAKKVCRWDSFTKQVQRVTMDAPVSSVALRQSGGYVATIGTKFCALNWKEQSAVVLATVDNDKKNNRFNDGKVDPAGRYFAGTMAEETAPAVLERHQGALYSLFPDHHVKKYFDQVDISNGLDWSLDHKIFYYIDSLSYSVDAFDYDLQTGQISNRRSVYKLEKEEQIPDGMCIDAEGKLWVACYNGGRVIRLDPVTGKRLQTVKLPVDKTTSCCFGGKNYSEMYVTCARDGMDPEGLLRQPEAGGIFKITGLGVKGIAPYSYAG,failed
9,MSSKEEILSILEAFASTERMGSFFLDNATADFLFIRPSGNPLDAKGFENMWSSGDLVLESAEITKVHKFELLGSNAAICVFTLGSKFTYKGTQNDDLPTVTSIFKKIDEKWKVAWMQRSSGQSDMTLWNE,not failed
10,MSSKIDALKITVLSLSLCFSVSSLSATVNKTVKQKKNVIYILTDDQRYDEVGFLNPRIDTPNMDKLAAGGVYFKNAFVTTALCSPSRATILTGQYMHNHGVVDNNNPAKESSVYFPSYLQEVGYETSFFGKWHMGGHGDSPQPGFDHWLSFAGQGHYYPKKDKKGRTNKININGERVDQKGYITDELTDYAVDWLDKRDSDKPFFMYLSHKAVHSNFDPAPRHKDQYSDVAIEVPESQADTPENYAGKPMWVKNQRNSWHGVDFPYHSEMDVQEYKRQYHRALSAVDDSLGRVLKWLKDNNLENDTIVMLMGDNGFMFGEHGLIDKRNAYEESMRVPLLAYAPGYFKPGTVVDEMVANLDIAPTILEIAGAKKPAHFDGDSWLPLAKNKEVNQWRENFLYEYYWEFNYPSTPTTFALRTDNYKLIQYHGVWDTEELYDLKNDPKEMNNLINTPKHQPLIAQMRHDLFNLLVNKKGDNVIPYTEKYTPGAVYRERDRGETADFPDNWLKKEGDDGLRTFLRIKPIKDKKDDKKKSAKH,failed
11,MSSLAQREERSSDGREPARAWAVTIVVLGLLLVIWPFVRTPPLPIAPAYAHLLGAWLGAVVALAAMARALRPHRRRGPPDA,failed
12,MSSLLGTFLYTLETTLPVFAMVFIGIGLRRIGWIDQGFIATASALVFKATLPTLVFLSIIRADLDTTLSISMLIFYFLATLASFALVWFWATKRVRQEDRGVYVQGAFRGNCGIVGLALAANLYGDYGLSAGGLLLGLVIVVYNSLSVIVLLAYQPGKTMSLSNTLRDIARNPLIIGVVLAIPFAAFEITLPGWVMTSGDYFASLTLPLALLCIGATVSLKSIRSDSGPAMGSSIWKMVSLPALCTLVAWLAGFEGRELGLMFLFFASPTAAASFVMVKALGGNDRMAANIIALTTLLASVTVTTGVFVLQSIGVA,failed
13,MSSLMMHCLIHVQELMNVKGIVVDELTGRSGPDHAKSLDPRTSLLRLITRPLGRVPPRESLDHFTRPPGRVSSPLPPSPSLDYILDVELQSLLHSALNQTLEHKEEKKTPAIHSTSHSTTLVEYSS,failed
14,MSSLTIILIAAISAVLAFLIIFLLKSILFPKKRARIEKNLKSGKYGAAIKDAKSILSKNPRDSEARYLLGKAYLADKKVDLAFIEFKTLNKTAVFNNPATEIEFRTIIADLYLKFQQPDEALKEFMLLNKRDPKNPKPYFQAGQIYESKNMSDQAIAYFQKAIEVDSRFAEAYASLGLLLFKANQIPEAEKAIATALKLAPDNSETLYYHGKILKSKKNYAQALSALEKAARKQEIRSKCFFERGCCYLETNSLEKAEFEFTRAIKSSKQLSAPEVLYSRYLLADCYERQRNIDQAIEQWEAISAVNPKFRNTAQKLAEYSDLRTNDHMKEYLTLIKEEFFKMCRDITEQYFDYPVQALKETKMGCTILAVEKGSEQWLNTRKKPQLLIFSRDGHTITESFLRSVHEEMKKQAVVTSHIITSGAFSPDAIKFAENRPFNLIDRQKLERIVEKVKFTF,failed
15,MSSLTSVELNFLVFRYLQESGFTHAAFTLGYEAGINKSNIDGNMVPPGALIKFVQKGLQYMEMEANLSNSEVDIDEDFSFFQPLDLISKDVKELQDMLREKKRKERDMEKERDRSKENDKGVEREHEGDRNRAKEKDRHEKQKEREREREKLEREKEREREKIEREKEREREKMEREIFEREKDRLKLEKEREIEREREREKIEREKSHEKQLGDADREMVIDQTDKEIAGDGSTGAEPMDIVMTPTSQTSHIPNSDVRILEGHTSEVCACAWSPSASLLASGSGDATARIWSIPEGSFKAVHTGRNINALILKHAKGKSNEKSKDVTTLDWNGEGTLLATGSCDGQARIWTLNGELISTLSKHKGPIFSLKWNKKGDYLLTGSVDRTAVVWDVKAEEWKQQFEFHSGPTLDVDWRNNVSFATSSTDSMIYLCKIGETRPAKTFTGHQGEVNCVKWDPTGSLLASCSDDSTAKIWNIKQSTFVHDLREHTKEIYTIRWSPTGPGTNNPNKQLTLASASFDSTVKLWDAELGKMLCSFNGHREPVYSLAFSPNGEYIASGSLDKSIHIWSIKEGKIVKTYTGNGGIFEVCWNKEGNKIAACFADNSVCVLDFRM,failed
